T1: mKO-PBP1a (Escherichia coli, UniProt P02918 1-850)
T1 construct: PBP1a, inner membrane (IM) protein, Escherichia coli; Negative control partner of the FRET assay; source: E. coli TB28 ΔzapA, expressed from plasmid, in living cells
T1 sequence (looked up): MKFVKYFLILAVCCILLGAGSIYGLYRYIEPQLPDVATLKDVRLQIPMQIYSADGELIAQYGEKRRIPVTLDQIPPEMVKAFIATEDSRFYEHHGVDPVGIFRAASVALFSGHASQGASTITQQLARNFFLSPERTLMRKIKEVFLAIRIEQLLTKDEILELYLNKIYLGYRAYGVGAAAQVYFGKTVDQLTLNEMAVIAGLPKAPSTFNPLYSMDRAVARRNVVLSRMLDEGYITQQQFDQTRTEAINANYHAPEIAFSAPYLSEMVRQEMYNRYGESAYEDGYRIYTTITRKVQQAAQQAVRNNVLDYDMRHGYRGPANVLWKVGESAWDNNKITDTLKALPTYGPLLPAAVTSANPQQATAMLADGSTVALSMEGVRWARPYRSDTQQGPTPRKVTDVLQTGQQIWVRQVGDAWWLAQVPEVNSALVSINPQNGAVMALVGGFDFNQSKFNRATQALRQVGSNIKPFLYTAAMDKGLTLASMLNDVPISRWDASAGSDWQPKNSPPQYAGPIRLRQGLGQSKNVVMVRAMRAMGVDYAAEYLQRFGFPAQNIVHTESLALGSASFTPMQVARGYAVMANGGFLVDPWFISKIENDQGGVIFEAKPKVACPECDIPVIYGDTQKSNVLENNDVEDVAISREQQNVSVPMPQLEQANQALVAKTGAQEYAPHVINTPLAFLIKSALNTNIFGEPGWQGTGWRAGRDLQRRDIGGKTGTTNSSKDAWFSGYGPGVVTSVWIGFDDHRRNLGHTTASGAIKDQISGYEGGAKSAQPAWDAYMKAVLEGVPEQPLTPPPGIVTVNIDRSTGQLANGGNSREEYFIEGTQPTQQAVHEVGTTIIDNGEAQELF

T2: mKO-FtsZ (Escherichia coli, UniProt P0A9A6 1-383)
T2 construct: FtsZ, Escherichia coli; also called Filamenting temperature sensitive Z; source: E. coli TB28 ΔzapA or WT strain, expressed from plasmid, in living cells
T2 sequence (looked up): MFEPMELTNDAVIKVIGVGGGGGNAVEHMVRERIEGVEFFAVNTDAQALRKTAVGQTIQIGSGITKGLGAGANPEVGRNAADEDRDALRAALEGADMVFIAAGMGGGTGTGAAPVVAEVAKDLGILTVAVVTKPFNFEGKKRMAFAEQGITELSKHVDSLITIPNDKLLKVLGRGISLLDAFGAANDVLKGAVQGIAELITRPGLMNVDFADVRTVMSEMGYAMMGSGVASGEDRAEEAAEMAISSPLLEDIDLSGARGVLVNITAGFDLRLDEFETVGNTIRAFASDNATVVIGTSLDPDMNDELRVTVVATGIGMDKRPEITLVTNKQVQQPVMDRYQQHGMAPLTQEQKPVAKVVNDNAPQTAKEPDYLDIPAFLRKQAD

B1: mCh-PBP1b (natural protein, Escherichia coli, UniProt P02919 1-844, looked up)
chain: MAGNDREPIGRKGKPTRPVKQKVSRRRYEDDDDYDDYDDYEDEEPMPRKGKGKGKGRKPRGKRGWLWLLLKLAIVFAVLIAIYGVYLDQKIRSRIDGKVWQLPAAVYGRMVNLEPDMTISKNEMVKLLEATQYRQVSKMTRPGEFTVQANSIEMIRRPFDFPDSKEGQVRARLTFDGDHLATIVNMENNRQFGFFRLDPRLITMISSPNGEQRLFVPRSGFPDLLVDTLLATEDRHFYEHDGISLYSIGRAVLANLTAGRTVQGASTLTQQLVKNLFLSSERSYWRKANEAYMALIMDARYSKDRILELYMNEVYLGQSGDNEIRGFPLASLYYFGRPVEELSLDQQALLVGMVKGASIYNPWRNPKLALERRNLVLRLLQQQQIIDQELYDMLSARPLGVQPRGGVISPQPAFMQLVRQELQAKLGDKVKDLSGVKIFTTFDSVAQDAAEKAAVEGIPALKKQRKLSDLETAIVVVDRFSGEVRAMVGGSEPQFAGYNRAMQARRSIGSLAKPATYLTALSQPKIYRLNTWIADAPIALRQPNGQVWSPQNDDRRYSESGRVMLVDALTRSMNVPTVNLGMALGLPAVTETWIKLGVPKDQLHPVPAMLLGALNLTPIEVAQAFQTIASGGNRAPLSALRSVIAEDGKVLYQSFPQAERAVPAQAAYLTLWTMQQVVQRGTGRQLGAKYPNLHLAGKTGTTNNNVDTWFAGIDGSTVTITWVGRDNNQPTKLYGASGAMSIYQRYLANQTPTPLNLVPPEDIADMGVDYDGNFVCSGGMRILPVWTSDPQSLCQQSEMQQQPSGNPFDQSSQPQQQPQQQPAQQEQKDSDGVAGWIKDMFGSN
notes: PBP1b, Escherichia coli; Negative control of the FRET assay; source: E. coli TB28 ΔzapA, expressed from plasmid, in living cells
B2: mCh-ZapA (wild type ZapA fused to mCh) (natural protein, Escherichia coli, UniProt P0ADS2 1-109, looked up)
chain: MSAQPVDIQIFGRSLRVNCPPDQRDALNQAADDLNQRLQDLKERTRVTNTEQLVFIAALNISYELAQEKAKTRDYAASMEQRIRMLQQTIEQALLEQGRITEKTNQNFE
notes: ZapA (Z associated protein A), Escherichia coli; zapA in plasmid pSAV077; also called mCh-ZapA^WT; ZapA^WT; source: E. coli TB28 ΔzapA or WT strain, expressed from plasmid, in living cells
B3: mCh-ZapA^I83E (dimeric ZapA mutant fused to mCh) (natural protein, Escherichia coli, UniProt P0ADS2 1-109, looked up)
chain: MSAQPVDIQIFGRSLRVNCPPDQRDALNQAADDLNQRLQDLKERTRVTNTEQLVFIAALNISYELAQEKAKTRDYAASMEQRERMLQQTIEQALLEQGRITEKTNQNFE
notes: ZapA (Z associated protein A), Escherichia coli, with I83E; zapA of pSAV077 exchanged for zapA^I83E from pRP071; source: E. coli TB28 ΔzapA or WT strain, expressed from plasmid pNM137, in living cells

How the values were obtained:
[1] = biological target: T1, mKO-PBP1a; experiment: FRET or BRET; in vivo FRET in E. coli TB28 ΔzapA cells, mKO donor and mCh acceptor fusions expressed from plasmids; energy transfer efficiency (EfA) from unmixed emission spectra; conditions: partners not purified
[2] = biological target: T2, mKO-FtsZ; experiment: as above; conditions: partners not purified

Row | Binder | energy transfer efficiency (EfA) [1] | energy transfer efficiency (EfA) [2]
1 | B1 | < 1.7% | 
2 | B2 | < 1.7% | 4%
3 | B3 | < 1.7% | 

Reference: publication doi:10.1101/749176, “ZapA tetramerization is required for midcell localization and ZapB interaction in Escherichia coli” (bioRxiv, 2019)
